Reference: article PMC10880117

Tests used:
[1] = biological target: Human V95E HSC70 (HSPA8) (human) (UniProt P11142)
[2] = biological target: Human WT HSC70 (HSPA8) (human) (UniProt P11142)

Chain of DnaJB4 (Q9UDY4 whole entry): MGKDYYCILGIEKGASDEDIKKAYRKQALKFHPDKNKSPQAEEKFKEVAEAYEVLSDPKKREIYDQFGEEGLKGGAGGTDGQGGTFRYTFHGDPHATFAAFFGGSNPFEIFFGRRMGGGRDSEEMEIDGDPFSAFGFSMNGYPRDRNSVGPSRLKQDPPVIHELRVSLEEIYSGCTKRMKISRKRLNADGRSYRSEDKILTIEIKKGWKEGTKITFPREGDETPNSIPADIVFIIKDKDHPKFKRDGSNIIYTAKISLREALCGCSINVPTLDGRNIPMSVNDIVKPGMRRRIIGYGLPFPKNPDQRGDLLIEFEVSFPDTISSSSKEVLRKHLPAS

| Molecule | pseudo-Km of DnaJB4-stimulated ATPase activity (malachite green assay, 1 μM HSC70 titrated with DnaJB4, 37°C, Michaelis-Menten fit) [1] [µM] | pseudo-Km of DnaJB4-stimulated ATPase activity (malachite green assay, 1 μM HSC70 titrated with DnaJB4, 37°C, Michaelis-Menten fit) [2] [µM] | stimulation of ATPase activity (malachite green assay, normalised percent) as BAG1 is titrated into HSC70 (1 μM) and DnaJB4 (0.1 μM); value at the highest concentration tested [1] [%] |
| --- | --- | --- | --- |
| DnaJB4 (from UniProt Q9UDY4 1-337) (natural protein) | 0.088 | 0.092 | – |
| BAG1 (natural protein) MAQRGGARRPRGDRERLGSRLRALRPGREPRQSEPPAQRGPPPSGRPPARSTASGHDRPTRGAAAGARRPRMKKKTRRRSTRSEELTRSEELTLSEEATWSEEATQSEEATQGEEMNRSQEVTRDEESTRSEEVTREEMAAAGLTVTVTHSNEKHDLHVTSQQGSSEPVVQDLAQVVEEVIGVPQSFQKLIFKGKSLKEMETPLSALGIQDGCRVMLIGKKNSPQEEVELKKLKHLEKSVEKIADQLEELNKELTGIQQGFLPKDLQAEALCKLDRRVKATIEQFMKILEEIDTLILPENFKDSRLKRKGLVKKVQAFLAECDTVEQNICQETERLQSTNFALAE | – | – | 25 |
